Data set [1] concerns the target mevalonate kinase from Methanosaeta concilii GP6 (Methanosaeta concilii GP6). Briefly: SEC; gel filtration of the purified enzyme; apparent mass compared with the mass calculated from the sequence; column and buffer not told.
Data set [2] deals with the molecule itself. The description is as above.

These results are taken from article PMC5817203, “Characterization of feedback-resistant mevalonate kinases from the methanogenic archaeons Methanosaeta concilii and Methanocella paludicola” (Microbiology, 2017).

One may read the stoichiometry N as the number of molecules, sites or subunits per partner or assembly.

With “mevalonate kinase from Methanosaeta concilii GP6 (enzyme)”, the stoichiometry N in data set [1] was 4.

B1: mevalonate kinase from Methanocella paludicola SANAE (enzyme, UniProt D1YZ39 1-299, looked up)
chain: MTMCSAPGKVFLFGEHAVVYGKRAIACAIDLRTTVEVSRKSRGVHIHSAFKDEPDKNLYIKTAVKRMQKCADIRNVNIAVSSRIPVASGLGSSAAVTVATIGALNEEFSAGLSKKDIAYMAYQTELEVQGAASPTDTFVSTMGGTVVVPDMRTLPPITCGIVVGHTGISKSTSRMVSRVRTLKEKYPDVIDGIMDSIGDISARGEDLIKQNDYRSIGELMNVNQGLLDALGITIPELSLQIYAARQHGAYGAKITGAGGGGCMVAICDDKNCKEIATAIGRSYGDSFISKPTAEGIFIQ
notes: codon-optimised synthetic gene, coding part cloned NdeI/EcoRI into pET-28b(+); No tag removal is described; also called MVK^mpd; mpd; source: E. coli BL21 (DE3), pET-28b(+), purified (His-Trap HP, dialysis)
Turning to B1, the “stoichiometry N” value in data set [2] was 2.
